Laboratory results as given in patent publication US20040176301A1 (CYCLACEL, published 2004).
Square brackets hold non-standard residues; d marks the D form. Ends that are not written are not given here. * marks the point of attachment. Biotin = O=C1N[C@H]2[C@H](CS[C@H]2CCCCC(=O)*)N1; Ahx = NCCCCCC(=O)O

Assays:
CDK4 = biological target: T1, CDK4 (UniProt P11802 1-303); assay: pull-down with biotinylated peptide on streptavidin-agarose beads; SDS-PAGE, Western blot
T1 construct: also called CDK4-6×His
Excerpt: (§1) The biotinylated peptide was pre-immobilised on streptavidin-agarose beads.

CDK2 = CDK2 (UniProt P24941 1-298); assay: as above
Excerpt: as §1

Cyclin D1 = Cyclin D1 (UniProt P24385 1-295, limits assumed); assay: pull-down, biotinylated peptide on streptavidin-agarose; SDS-PAGE, Western blot
Excerpt: as §1

CDK1/Cyclin B complex [1] = biological target: T2, CDK1/Cyclin B complex (UniProt P06493 1-297; P14635 1-433); assay: cell-based or functional assay
cyclin B = cyclin B (UniProt P14635 1-433); assay: pull-down with immobilised peptide
CDK1/Cyclin B complex [2] = biological target: T2, CDK1/Cyclin B complex; assay: pull-down with immobilised peptide
CDK2/Cyclin E complex = CDK2/Cyclin E complex (UniProt P24941 1-298; P24864 1-410); assay: cell-based or functional assay
CDK4/Cyclin D1 complex = CDK4/Cyclin D1 complex (UniProt P11802 1-303; P24385 1-295); assay: cell-based or functional assay
Throughout, for % Inhibition, cyclin D1/CDK4 kinase: test concentration or dose not given here.
Throughout, for % Inhibition, cyclin E/CDK2 kinase: test concentration or dose not given here.

T2 sequence (P06493 other isoform, or with tags, fused parts or gaps, chain 1 of 2): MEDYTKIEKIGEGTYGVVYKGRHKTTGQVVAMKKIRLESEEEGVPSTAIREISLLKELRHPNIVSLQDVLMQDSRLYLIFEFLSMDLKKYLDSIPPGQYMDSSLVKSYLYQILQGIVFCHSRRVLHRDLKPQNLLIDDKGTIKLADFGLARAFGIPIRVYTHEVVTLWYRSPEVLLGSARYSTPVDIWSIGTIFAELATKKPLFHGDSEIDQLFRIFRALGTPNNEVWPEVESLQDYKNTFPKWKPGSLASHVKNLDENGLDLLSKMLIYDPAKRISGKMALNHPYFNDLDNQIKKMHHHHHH
T2 sequence (P14635 other isoform, or with tags, fused parts or gaps, chain 2 of 2): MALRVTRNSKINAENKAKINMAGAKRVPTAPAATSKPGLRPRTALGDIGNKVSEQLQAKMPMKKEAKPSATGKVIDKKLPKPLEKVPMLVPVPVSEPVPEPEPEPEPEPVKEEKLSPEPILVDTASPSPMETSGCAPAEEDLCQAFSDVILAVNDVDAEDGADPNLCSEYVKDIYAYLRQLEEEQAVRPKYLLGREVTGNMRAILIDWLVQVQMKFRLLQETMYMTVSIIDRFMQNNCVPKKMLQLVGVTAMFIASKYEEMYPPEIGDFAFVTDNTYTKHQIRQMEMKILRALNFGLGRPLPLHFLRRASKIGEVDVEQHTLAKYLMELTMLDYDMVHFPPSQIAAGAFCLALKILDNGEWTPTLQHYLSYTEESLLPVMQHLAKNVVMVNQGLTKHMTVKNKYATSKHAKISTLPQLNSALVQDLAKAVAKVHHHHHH
CDK4/Cyclin D1 complex, sequence (P11802 other isoform, or with tags, fused parts or gaps, chain 1 of 2): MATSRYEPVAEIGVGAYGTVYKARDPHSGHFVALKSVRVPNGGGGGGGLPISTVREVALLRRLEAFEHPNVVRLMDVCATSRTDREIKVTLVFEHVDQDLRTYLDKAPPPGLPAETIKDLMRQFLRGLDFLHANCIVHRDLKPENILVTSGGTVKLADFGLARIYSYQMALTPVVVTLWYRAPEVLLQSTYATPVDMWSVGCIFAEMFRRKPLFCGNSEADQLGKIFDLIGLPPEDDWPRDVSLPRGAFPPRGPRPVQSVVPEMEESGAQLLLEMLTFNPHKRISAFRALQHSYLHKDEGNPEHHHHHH
CDK4/Cyclin D1 complex, sequence (P24385 whole entry, chain 2 of 2): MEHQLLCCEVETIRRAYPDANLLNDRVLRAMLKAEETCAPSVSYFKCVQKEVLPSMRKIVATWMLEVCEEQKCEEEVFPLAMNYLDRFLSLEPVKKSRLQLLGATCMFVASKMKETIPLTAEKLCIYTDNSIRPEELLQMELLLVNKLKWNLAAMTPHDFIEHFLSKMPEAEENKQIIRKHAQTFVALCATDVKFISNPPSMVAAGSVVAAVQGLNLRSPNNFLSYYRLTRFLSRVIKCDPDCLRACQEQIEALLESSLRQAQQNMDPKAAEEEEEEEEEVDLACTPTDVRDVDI
cyclin B, sequence (P14635 whole entry): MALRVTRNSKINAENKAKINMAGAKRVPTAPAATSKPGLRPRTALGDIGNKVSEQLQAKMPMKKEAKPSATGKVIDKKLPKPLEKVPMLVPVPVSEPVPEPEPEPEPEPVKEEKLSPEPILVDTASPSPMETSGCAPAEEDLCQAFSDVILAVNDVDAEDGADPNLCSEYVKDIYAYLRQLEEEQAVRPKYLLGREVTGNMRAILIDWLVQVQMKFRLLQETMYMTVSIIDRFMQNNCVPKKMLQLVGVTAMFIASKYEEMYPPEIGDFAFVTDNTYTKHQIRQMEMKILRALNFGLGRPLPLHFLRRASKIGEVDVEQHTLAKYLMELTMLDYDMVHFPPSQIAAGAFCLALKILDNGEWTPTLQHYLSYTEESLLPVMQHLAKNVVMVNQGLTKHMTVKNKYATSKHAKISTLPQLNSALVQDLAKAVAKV
T1 sequence (P11802 other isoform, or with tags, fused parts or gaps limits assumed): as the sequence (P11802 other isoform, or with tags, fused parts or gaps, chain 1 of 2) above
Cyclin D1, sequence (P24385 whole entry): as the sequence (P24385 whole entry, chain 2 of 2) above

binding result (CDK4) | binding result (CDK2) | binding result (Cyclin D1) | IC50, CDK1-Cyclin B phosphorylation of GST-Rb (CDK1/Cyclin B complex [1]) | IC50, CDK1-Cyclin B phosphorylation of Histone 1 (CDK1/Cyclin B complex [1]) | binding result (cyclin B) | binding result (CDK1/Cyclin B complex [2]) | % Inhibition, cyclin E/CDK2 kinase (CDK2/Cyclin E complex) | IC50, cyclin E/CDK2 kinase, GST-pRb (CDK2/Cyclin E complex) | % Inhibition, cyclin D1/CDK4 kinase (CDK4/Cyclin D1 complex) | IC50, cyclin D1/CDK4 kinase, GST-pRb (CDK4/Cyclin D1 complex) | Binder
no binding | no binding | binds | – | – | – | – | – | – | – | – | Biotin-[Ahx]DFYHSKRRLIF-NH2 (SMILES CC[C@H](C)[C@H](NC(=O)[C@H](CC(C)C)NC(=O)[C@H](CCCNC(=N)N)NC(=O)[C@H](CCCNC(=N)N)NC(=O)[C@H](CCCCN)NC(=O)[C@H](CO)NC(=O)[C@H](Cc1c[nH]cn1)NC(=O)[C@H](Cc1ccc(O)cc1)NC(=O)[C@H](Cc1ccccc1)NC(=O)[C@H](CC(=O)O)NC(=O)CCCCCNC(=O)CCCC[C@@H]1SC[C@@H]2NC(=O)N[C@@H]21)C(=O)N[C@@H](Cc1ccccc1)C(N)=O, immobilised on streptavidin) [biotinyl-Ahx-Asp-Phe-Tyr-His-Ser-Lys-Arg-Arg-Leu-Ile-Phe-NH]
– | – | – | 200 µM | > 200 µM | no binding | no binding | 80% | 4.5 µM | 70% | 20 µM | DFYHSKRRLIFS-NH2 [p21 (149-160) DFYHSKRRLIFS-NH2]
